{
  "source": "the nanobody polyreactivity screen of Harvey et al. (2022)",
  "data": [
    {"assay": "yeast display, Sf9 membrane polyspecificity reagent, FACS + sequencing; frameworks hold sequencing errors", "how_it_was_run": "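Sorting gates, low and high (top ~1%), were placed on anti-HA fluorescence to track expression and on streptavidin fluorescence to track reagent binding. A clone's polyreactivity label is taken from the gate it came out of. The reagent was 10% biotinylated, detergent-solubilized Sf9 membrane, applied for 1 hour at 4 °C to galactose-induced yeast display cells.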", "values": [
      {"sequence": "QVQLVESGGGLVQAGGSLRLSCAASGFIFGTYAMGWYRQAPGKEWELVAAISSGGSTFYADSVKGRFTISRDNEKNTVYLQMYSLKPEDTAVYYCAKEGGTYRIFNYWGQGTQVTVSS", "polyreactivity (PSR sort gate)": "low polyreactivity"},
      {"sequence": "QVQLVESGGGLVQAGGSLRLSCAASGRTFAHNAMGWYRQAPGKERELVAAITWSGGTTYYADSVKGRFTISRDNAKNTVYLQMNSLKPEDTAVYYCNTYSYQPDPKYDYWGQGTQVTVSS", "polyreactivity (PSR sort gate)": "low polyreactivity"},
      {"sequence": "QVQLVESGVGLVQAGGSLRLSCAASGSTFSNNAMGWYIQAPGKERELVAVITGDGGSTYYADSVKGRFTISRDIAKNTVYLQTNSLKPEDTAVYSCNARSSRYSRFRQRFGYWGQVTQVTVSS", "polyreactivity (PSR sort gate)": "low polyreactivity"},
      {"sequence": "QVQLVESGGGLVQAGGSLRLSCAASGRISNFYSMGWYIQAPGKERELVAANRSGGSTNYADSVKGRFTISRDNAKYTVYLQMNSLKPEDTAVYYCAAVTGASPTRMDYWGQGTQVTVSS", "polyreactivity (PSR sort gate)": "high polyreactivity"},
      {"sequence": "QVQLVESGGGLVQAGGSLRLSCAASGRTFLVNAMGWYRQAPGKERELVAVMTRGGSTNYADSVKGRFTISRDNAKNTVYLQMNSLKPEDTAVYYCAKQFSPYRSYGPVVRYDYWGQGTQVTVSS", "polyreactivity (PSR sort gate)": "low polyreactivity"},
      {"sequence": "QVQLVESGGGLVQAGGSLRLSCAASGSIFLYNTMGWYRQAPGKQRELVAALTYSGGSTYYADSVKGRFTISRDHAKNTVYLQMNSLKPEDTAVNYGNARHYSAYYSWGQGTLVTVSS", "polyreactivity (PSR sort gate)": "high polyreactivity"},
      {"sequence": "QVQLVESGVGLVQAGGSLRLICAASGRTFYWYAMGWYRQAPRKERELVATITRGGRTYYADSVKGRFTISRDNAKNTVYLQMNSLKPEDTAVYDCATVSIAGPRYDYWGQGTQVTVSS", "polyreactivity (PSR sort gate)": "high polyreactivity"},
      {"sequence": "QVQLVESGGGLVQAGGSLRLSCAASGIIFLWYAMGWYRQAPGKERELVAAISRTGSSTYYADSVKGRFTISRDNAKNTVYLQMNSLKPEDTAVYYCAAAYYSKRSWRFDYWGQGTQVTVSS", "polyreactivity (PSR sort gate)": "high polyreactivity"},
      {"sequence": "QVQLVESGGGLVQAGGSLRLSCAASGRIFPTNAMGWYRQAPGKERELVAAIPVSGGSTYYADSVKGRFTISRDNAKNTVYLQMNSLKPEDTAVYYCAADSSTYRFDYWGQGTQVTVSS", "polyreactivity (PSR sort gate)": "low polyreactivity"},
      {"sequence": "QVQLVESGGGLVQAGGSLRLSCAASGSIFGYYTMGWYRQAPGKERELVAAITYSGGSTYYADSVKGRFTISRDNAKNTVYLQMNSLKPEDTAVYYCNAKSAAHRYVRRHDYWGQGTQVTVSS", "polyreactivity (PSR sort gate)": "low polyreactivity"},
      {"sequence": "QVQLVESGGGLVQAGGSLSLSCAASGITLYRYVMGWYRQAPWKERELVADNTGRGTSTYYADSVKGRFTISRDNAKNTVYFQLNSLKPEDTAVYYCNAEYTKTGALVIPYTYYYAEDYWGQATQVTVSS", "polyreactivity (PSR sort gate)": "low polyreactivity"},
      {"sequence": "QVQLVESGGGLVQAGGSLRLSCAASGNIFDLYAMGWYRQAPGKERELVAAITRSSSRTYYADSVKGRFTISRDNAKNTVYLQMNSLKPEDTAVYYCAAKYSNGSGFDYWGQGTQVTVSS", "polyreactivity (PSR sort gate)": "high polyreactivity"},
      {"sequence": "QVQLVESGGGLVQAGGSLRLSCAASGSIFEYNGMGWSRQAPGKERELVAAITTTGTTDYADSVKGRFTISRDNAKNTVYLQMNSLKPEDTAVYYCAADYTYYYKGEYDYWGQGTQVTVSS", "polyreactivity (PSR sort gate)": "low polyreactivity"},
      {"sequence": "QVQLVESGGGLVQAGRSLRLTCAASGIIFIGNAMGWYRQATGKERELVAAISRRGGRTYYADSVKGRFTISRDNAKNTVYLQMFSLKPEDTAVYSCNAEITVNDDDYWGQGTQVTVSS", "polyreactivity (PSR sort gate)": "high polyreactivity"},
      {"sequence": "QVQLVESGGGLVQAGGSLRLSCAASGRTFVNNAMGWYRQAPGKERELVAAISRSGGRTYYADSVKGRFTISRDNAKNTVYLQMNSLKPEDTAVYYCAADSSYSRKYDYWGQGTQVTVSS", "polyreactivity (PSR sort gate)": "low polyreactivity"},
      {"sequence": "QVQLVESGGGLVQAGGSLRLSCAASGRIFDDYVMGWYRKAPGKERELVARISVRGGSTYYADSVKGRFTISRDNAKNTVYLQMNSLKPEDTAVYYCNAVFGGWLGPFDYWGQGTQVTVSS", "polyreactivity (PSR sort gate)": "low polyreactivity"},
      {"sequence": "QVQLVESGGGIVQAGGSLRLSSAASGRIFYRYAMGWYRQAPGKERELVASITRSGITHYADSVNGRFTISRDNAKNTVYLQMNSLKPEDTAVYYCNKRPWHRSSRPFYYWGQGTQVTVSS", "polyreactivity (PSR sort gate)": "high polyreactivity"},
      {"sequence": "QVQLVESGGGLVQAGGSLRLSCAASGNIFSYYAMGWYRQAPGKERELVAAIYTGGSTYYADSVKGRFTISRDNAKNTVYLQMNSLKPEDTEVYYCAASGLNLRQDYDYWGQGTQVTVSS", "polyreactivity (PSR sort gate)": "low polyreactivity"},
      {"sequence": "QVQLVESGGGLVQAGGSLRLSCAASGSIFKGYAMGWYRQAPGKERELVAAISGGGGSTYYADSVKGRFTISRDNAKNTVYLQMNSLKPEDTAVYYCNRDDSWSTTGAYDYWGQGTQVTVSS", "polyreactivity (PSR sort gate)": "low polyreactivity"},
      {"sequence": "QVQLVESGGGLVQAGGSLRLSCAASGYTFLAYAMGWYRQAPGKERELVAAISSGGRTYYADSVKGRFTISRDNAKNTVYLQMHSLKREDTAVYYCAAYPLRYRQYWGFVYWGQGTQVTVSS", "polyreactivity (PSR sort gate)": "high polyreactivity"},
      {"sequence": "QVQLVESGGGLVQAGGSLRLSCAASGFIFALYTMGWYRQAPGKERELVARIRGGGRTNYADSVKGRFTISRDNAKNTVYLQMNSLKPEDTAVYYCNARKTVGMDYWGQGTQVTVSS", "polyreactivity (PSR sort gate)": "low polyreactivity"},
      {"sequence": "QVQLVESGGGLVQAGGSHRLSCAASGRIFKIYAMGWYRQAPGKERELVAAISRGGRTYYADSVKGRFTISRDNAMYTFYLLLNSLTPEDTAVYYCNLYAPDTYGINGYWGQGTQVSVSS", "polyreactivity (PSR sort gate)": "high polyreactivity"},
      {"sequence": "QVQLVESGGGLVQAGGSLRLSCAASGRIFQFNFMGWYRQAPGKERELVAAISGSGGSTYADSVKGRFTISRDNAKNTVYLQMNSLKPEDTAVYYCATEYVVYRPRGRLQKFDYWGQGTQVTVSS", "polyreactivity (PSR sort gate)": "low polyreactivity"},
      {"sequence": "QVQLVESGGGLVRARGSLRLSWAASGNTFSSNAMGWYRQAPGKERELVAGITKSGGRTYYADSVKGSFTISRDNAKNTVYLQMNSLKPEDTAVYYCNRRACPYSIPYYYWGQGTQVTVSS", "polyreactivity (PSR sort gate)": "high polyreactivity"},
      {"sequence": "QVHLVESGGGLVQAGGSLRLSCAASGRTFGYYAMGWYRQAPAKERELVAAITSDGRTNYADSVKGRFTISRDNAKNTVYLQMNSLKPEDTAVYYCAAQILGTFYEYDYWGQGTQVTVSS", "polyreactivity (PSR sort gate)": "low polyreactivity"},
      {"sequence": "QDQHVESGGGIVQAGGSLRLICAASGRTFANNAMGWYRQAPGKERELVAAISWSGGSTYYADSVKGRFTISRDNAKNTVYLQMNSLKPEDTAVYYCAADSPRYGGYGYWGQGTHVTVSS", "polyreactivity (PSR sort gate)": "low polyreactivity"},
      {"sequence": "QVQLVESGGGLVQAGGSLRLSCAASGYTFAVYAMGWYRQAPGKERELVAAISSDGSTNYADSVKGRFTISRDNAKNTVYFQMNSLKPEDTSVYYCAKVYKDLAGPFYDYWGQGTQVTVSS", "polyreactivity (PSR sort gate)": "low polyreactivity"},
      {"sequence": "QVQHVESGVGLVQAGGSLRLSCAASGSTFDRYAMRWYRQAPGKERELVAAISWSAGRTYYADSVKGRFTISRDNAKNTVYLQMNSLKPEDTAVYYCAADQIVSGTYDYYWGQGTQVTVSS", "polyreactivity (PSR sort gate)": "low polyreactivity"},
      {"sequence": "QVQLVESGGGLDQAGGSLRLSWAASGGIFIYNAMGWYRQPPGKEREVVAAINISGGNTYYADSVKGRFTISRDNAKNTVYLQMNSLKPEDTAVYYCAARYASSWWIRYYFWGQGTQVTVSS", "polyreactivity (PSR sort gate)": "high polyreactivity"},
      {"sequence": "QVQLVESGGGLVQAGGSLRLSCAASGLTFYEYAMGWYRQAPGKERELVAAISWRGDSTHYADSVKGRFTISRDNAKNTVYLQMNSLKPEDTAVYYCNTRRLHGWLYGYEYWGQGTQVTVSS", "polyreactivity (PSR sort gate)": "low polyreactivity"},
      {"sequence": "QVQLVESGGGLVQAGGSLRLSCAASGPIFTSNAMGWYRQAPGKERELVAAISRRGTRTYYADSVKGRFTISRDNAKNTVYLQMNSLKPEDTAVYYCAAGWTTRYFGGVDYWGQGTQVTVSS", "polyreactivity (PSR sort gate)": "high polyreactivity"},
      {"sequence": "QVQLVESGGGLVQAGGSLRLSCAASGSTFKYNAMGWYRQAPGKERELVARISWSGGSTYYADSVKGRFTISRDNAKNSVYLQMNSLKPEDTAVYYCAARSWWRGYSFYYWGQGTQVTVSS", "polyreactivity (PSR sort gate)": "high polyreactivity"},
      {"sequence": "QVQLVESGGGLVQAGGSLRLSCAASGLTFARYAMGWSRQAPGKERELVAAISSSGGTKYADSVKGRFTISRDNAKNTVYLQMNSLIPEDTAVYYCNADAVVERSSVWYYWSIYEYWGQGTQVTVSS", "polyreactivity (PSR sort gate)": "low polyreactivity"},
      {"sequence": "QVQLVESGGGLVQAGGSLRLSCAASGSTFGKNAMAWYRQAPGKERELVAAITSSGGRTYYADSVKGRFTISRDNAKNTVYLQMNSLKPEDTAVYYCNSVTRRRSLGPWPVEYDYWGQGTQVTVSS", "polyreactivity (PSR sort gate)": "high polyreactivity"},
      {"sequence": "QVQLVESVGGLVQAGGSLRLSCAASGLIFHRYAMGWYRQAPGKERELVAAISSSGGITYYADSVKGRFTISRDNAKNTVYLQMNSLKPVDTAVYYCPADTGKGSPFSAGLGRAGDYWGHGTQVTVSS", "polyreactivity (PSR sort gate)": "low polyreactivity"},
      {"sequence": "QVQLVESGGGLVQAGGSLRLTCSASGSTFPSNSMGGYRQAPGKERELVAAITFRGGRTYYADSVKGRFTISRDNAKNTVYLQMNSLIPEDTAVYYCAAERWWYTVRGYGYWGQGTQVTVSS", "polyreactivity (PSR sort gate)": "high polyreactivity"},
      {"sequence": "QVQLVESGGGLDQAGGSLRLSCAASGFTLDYYAMGWYRQAPGKERELVAAISWSGGRTYYADSVKGRFTISRDNAKNTVYLQMNSLKPEDTAVYYCNASPYGRKYGILADGDYWGQGTQVTVSS", "polyreactivity (PSR sort gate)": "high polyreactivity"},
      {"sequence": "QVQLVESGGGLVQAGGSLRLSCAASGFIFSQNAMGWYRQAPGKERELVAAITSGGGTNYADSVKGRFTISRDNAKNTVYLQMNSLKPEDTAVYYCAADDEKRYSYQTYFERDYWGQGTQVTVSS", "polyreactivity (PSR sort gate)": "low polyreactivity"},
      {"sequence": "QVQLEESAGGLVQAGGSLRLSCAASGSSFTSYAMGWYRQAPGKERELVAAITSGGSTTYADSVKGRFTISRDNEKNTVYLQMNSLKPEDTAVYYCNAKWYGYLTRDAYRYRYTYDYWGQGTQVTVSS", "polyreactivity (PSR sort gate)": "low polyreactivity"},
      {"sequence": "QVQLVESGGGLVQEGGSLRLSCAASGFTYYHYAMGWYRHAPGKERELVAAITWSGGDTYYADSVKGRFTISRDNAKNTVYLQMNSLKPDDTAVYYCNADDPPGARYFDSFDYRGDYWGQGTQVTVSS", "polyreactivity (PSR sort gate)": "low polyreactivity"},
      {"sequence": "QVQLQESGGGLVQAGGSLRRSCAATGSIFYRLKMGWHRQATGKERELVATIDPGSNTYYADSVKGSFTMSRDNAKNTVYPQMYSLKPEDTAVYYCAVSAHWTIHYYYWGQGTQVTVSS", "polyreactivity (PSR sort gate)": "high polyreactivity"},
      {"sequence": "QVQLVESGGGLVQAGGILRFSCAASGRTFKYYAMGWYRQAPGKERELVAAISYNGGSTFYADSVKGRFTISRDNAKNTVYLQLNSLKPEDTAVYYCAAGPRGTGKYYWGQGTQVTVSS", "polyreactivity (PSR sort gate)": "high polyreactivity"},
      {"sequence": "QVQLVESGGGLVQAGGSLRLSCAASGSIFAYYAMGWYRQAPGKERELVAAITSGDSTYYADSVKGRFTISRDNAKNTVYLQMNSLKPEDTAVYYCAADVSWRSNWYDYWGQGTQVTVSS", "polyreactivity (PSR sort gate)": "low polyreactivity"}
    ]}
  ]
}
